# Measured values taken from publication PMC8786347 (Oncoimmunology, 2022).
# T1: CD27-moFc (UniProt P26842 20-191)
# T1 sequence (looked up): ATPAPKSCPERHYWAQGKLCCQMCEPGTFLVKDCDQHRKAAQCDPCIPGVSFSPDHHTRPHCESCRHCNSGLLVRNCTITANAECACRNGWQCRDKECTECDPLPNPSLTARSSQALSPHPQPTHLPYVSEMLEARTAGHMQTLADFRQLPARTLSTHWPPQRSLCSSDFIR
# T2: OX40-moFc (UniProt P43489 29-214)
# T2 sequence (looked up): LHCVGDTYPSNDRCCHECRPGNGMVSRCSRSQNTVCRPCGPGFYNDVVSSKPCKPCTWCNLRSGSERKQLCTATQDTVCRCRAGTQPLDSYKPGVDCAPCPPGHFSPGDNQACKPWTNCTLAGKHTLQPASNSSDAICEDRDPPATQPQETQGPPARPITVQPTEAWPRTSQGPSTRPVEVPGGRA
# T3: m4-1BB-Fc (mouse, UniProt P20334 24-187)
# T3 sequence (looked up): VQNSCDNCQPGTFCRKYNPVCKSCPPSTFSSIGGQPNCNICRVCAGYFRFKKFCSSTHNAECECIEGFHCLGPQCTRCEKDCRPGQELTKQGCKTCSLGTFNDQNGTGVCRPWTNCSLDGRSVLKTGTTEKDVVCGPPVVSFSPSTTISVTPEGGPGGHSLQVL
# T4: mOX40-Fc (mouse, UniProt P47741 20-211)
# T4 sequence (looked up): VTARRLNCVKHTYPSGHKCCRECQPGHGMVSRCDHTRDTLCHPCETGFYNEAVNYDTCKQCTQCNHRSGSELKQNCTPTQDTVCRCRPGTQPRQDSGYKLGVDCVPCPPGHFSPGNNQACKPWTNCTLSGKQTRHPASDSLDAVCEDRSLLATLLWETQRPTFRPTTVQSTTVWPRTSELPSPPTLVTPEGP
# T5: mCD27-Fc (mouse, UniProt P41272 24-182)
# T5 sequence (looked up): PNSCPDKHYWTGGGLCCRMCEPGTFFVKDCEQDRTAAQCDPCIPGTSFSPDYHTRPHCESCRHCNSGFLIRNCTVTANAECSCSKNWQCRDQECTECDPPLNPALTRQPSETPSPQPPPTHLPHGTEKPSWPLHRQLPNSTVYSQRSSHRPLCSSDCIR
# T6: mCD40-Fc (mouse, UniProt P27512 20-193)
# T6 sequence (looked up): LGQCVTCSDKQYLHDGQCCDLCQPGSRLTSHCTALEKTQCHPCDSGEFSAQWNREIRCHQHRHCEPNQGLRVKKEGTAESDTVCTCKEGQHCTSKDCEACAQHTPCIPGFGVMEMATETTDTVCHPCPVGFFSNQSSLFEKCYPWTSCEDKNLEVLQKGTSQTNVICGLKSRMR
# B1: scCD40L-scCD27L-Fc (Fc fusion, human)
# chain 1: GDQNPQIAAHVISEASSKTTSVLQWAEKGYYTMSNNLVTLENGKQLTVKRQGLYYIYAQVTFCSNREASSQAPFIASLCLKSPGRFERILLRAANTHSSAKPCGQQSIHLGGVFELQPGASVFVNVTDPSQVSHGTGFTSFGLLKLGGGDQNPQIAAHVISEASSKTTSVLQWAEKGYYTMSNNLVTLENGKQLTVKRQGLYYIYAQVTFCSNREASSQAPFIASLCLKSPGRFERILLRAANTHSSAKPCGQQSIHLGGVFELQPGASVFVNVTDPSQVSHGTGFTSFGLLKLGGGDQNPQIAAHVISEASSKTTSVLQWAEKGYYTMSNNLVTLENGKQLTVKRQGLYYIYAQVTFCSNREASSQAPFIASLCLKSPGRFERILLRAANTHSSAKPCGQQSIHLGGVFELQPGASVFVNVTDPSQVSHGTGFTSFGLLKL
# chain 2: SLGWDVAELQLNHTGPQQDPRLYWQGGPALGRSFLHGPELDKGQLRIHRDGIYMVHIQVTLAICSSTTASRHHPTTLAVGICSPASRSISLLRLSFHQGCTIASQRLTPLARGDTLCTNLTGTLLPSRNTDETFFGVQWVRPGGSLGWDVAELQLNHTGPQQDPRLYWQGGPALGRSFLHGPELDKGQLRIHRDGIYMVHIQVTLAICSSTTASRHHPTTLAVGICSPASRSISLLRLSFHQGCTIASQRLTPLARGDTLCTNLTGTLLPSRNTDETFFGVQWVRPGGSLGWDVAELQLNHTGPQQDPRLYWQGGPALGRSFLHGPELDKGQLRIHRDGIYMVHIQVTLAICSSTTASRHHPTTLAVGICSPASRSISLLRLSFHQGCTIASQRLTPLARGDTLCTNLTGTLLPSRNTDETFFGVQWVRP
# B2: scCD40L-scOX40L-Fc (Fc fusion, human)
# chain 1: B1 chain 1
# chain 2: QVSHRYPRIQSIKVQFTEYKKEKGFILTSQKEDEIMKVQNNSVIINCDGFYLISLKGYFSQEVNISLHYQKDEEPLFQLKKVRSVNSLMVASLTYKDKVYLNVTTDNTSLDDFHVNGGELILIHQNPGEFCVLGGGGSGGGGSGGGGSQVSHRYPRIQSIKVQFTEYKKEKGFILTSQKEDEIMKVQNNSVIINCDGFYLISLKGYFSQEVNISLHYQKDEEPLFQLKKVRSVNSLMVASLTYKDKVYLNVTTDNTSLDDFHVNGGELILIHQNPGEFCVLGGGGSGGGGSGGGGSQVSHRYPRIQSIKVQFTEYKKEKGFILTSQKEDEIMKVQNNSVIINCDGFYLISLKGYFSQEVNISLHYQKDEEPLFQLKKVRSVNSLMVASLTYKDKVYLNVTTDNTSLDDFHVNGGELILIHQNPGEFCVL
# B3: msc4-1BBL-mscOX40L-mFc (Fc fusion)
# chain 1: RTEPRPALTITTSPNLGTRENNADQVTPVSHIGCPNTTQQGSPVFAKLLAKNQASLCNTTLNWHSQDGAGSSYLSQGLRYEEDKKELVVDSPGLYYVFLELKLSPTFTNTGHKVQGWVSLVLQAKPQVDDFDNLALTVELFPCSMENKLVDRSWSQLLLLKAGHRLSVGLRAYLHGAQDAYRDWELSYPNTTSFGLFLVKPDNPWEGGGGSGGGGSGGGGSGGGGSRTEPRPALTITTSPNLGTRENNADQVTPVSHIGCPNTTQQGSPVFAKLLAKNQASLCNTTLNWHSQDGAGSSYLSQGLRYEEDKKELVVDSPGLYYVFLELKLSPTFTNTGHKVQGWVSLVLQAKPQVDDFDNLALTVELFPCSMENKLVDRSWSQLLLLKAGHRLSVGLRAYLHGAQDAYRDWELSYPNTTSFGLFLVKPDNPWEGGGGSGGGGSGGGGSGGGGSRTEPRPALTITTSPNLGTRENNADQVTPVSHIGCPNTTQQGSPVFAKLLAKNQASLCNTTLNWHSQDGAGSSYLSQGLRYEEDKKELVVDSPGLYYVFLELKLSPTFTNTGHKVQGWVSLVLQAKPQVDDFDNLALTVELFPCSMENKLVDRSWSQLLLLKAGHRLSVGLRAYLHGAQDAYRDWELSYPNTTSFGLFLVKPDNPWE
# chain 2: SSSPAKDPPIQRLRGAVTRCEDGQLFISSYKNEYQTMEVQNNSVVIKCDGLYIIYLKGSFFQEVKIDLHFREDHNPISIPMLNDGRRIVFTVVASLAFKDKVYLTVNAPDTLCEHLQINDGELIVVQLTPGYCAPEGSYHSTVNQVPLGGGGSGGGGSGGGGSSSSPAKDPPIQRLRGAVTRCEDGQLFISSYKNEYQTMEVQNNSVVIKCDGLYIIYLKGSFFQEVKIDLHFREDHNPISIPMLNDGRRIVFTVVASLAFKDKVYLTVNAPDTLCEHLQINDGELIVVQLTPGYCAPEGSYHSTVNQVPLGGGGSGGGGSGGGGSSSSPAKDPPIQRLRGAVTRCEDGQLFISSYKNEYQTMEVQNNSVVIKCDGLYIIYLKGSFFQEVKIDLHFREDHNPISIPMLNDGRRIVFTVVASLAFKDKVYLTVNAPDTLCEHLQINDGELIVVQLTPGYCAPEGSYHSTVNQVPL
# B4: mscCD40L-mscCD27L-mFc (Fc fusion)
# chain 1: HRRLDKVEEEVNLHEDFVFIKKLKRCNKGEGSLSLLNCEEMRRQFEDLVKDITLNKEEKKENSFEMQRGDEDPQIAAHVVSEANSNAASVLQWAKKGYYTMKSNLVMLENGKQLTVKREGLYYVYTQVTFCSNREPSSQRPFIVGLWLKPSSGSERILLKAANTHSSSQLCEQQSVHLGGVFELQAGASVFVNVTEASQVIHRVGFSSFGLLKLGGHRRLDKVEEEVNLHEDFVFIKKLKRCNKGEGSLSLLNCEEMRRQFEDLVKDITLNKEEKKENSFEMQRGDEDPQIAAHVVSEANSNAASVLQWAKKGYYTMKSNLVMLENGKQLTVKREGLYYVYTQVTFCSNREPSSQRPFIVGLWLKPSSGSERILLKAANTHSSSQLCEQQSVHLGGVFELQAGASVFVNVTEASQVIHRVGFSSFGLLKLGGHRRLDKVEEEVNLHEDFVFIKKLKRCNKGEGSLSLLNCEEMRRQFEDLVKDITLNKEEKKENSFEMQRGDEDPQIAAHVVSEANSNAASVLQWAKKGYYTMKSNLVMLENGKQLTVKREGLYYVYTQVTFCSNREPSSQRPFIVGLWLKPSSGSERILLKAANTHSSSQLCEQQSVHLGGVFELQAGASVFVNVTEASQVIHRVGFSSFGLLKL
# chain 2: SKQQQRLLEHPEPHTAELQLNLTVPRKDPTLRWGAGPALGRSFTHGPELEEGHLRIHQDGLYRLHIQVTLANCSSPGSTLQHRATLAVGICSPAAHGISLLRGRFGQDCTVALQRLTYLVHGDVLCTNLTLPLLPSRNADETFFGVQWICPGGSKQQQRLLEHPEPHTAELQLNLTVPRKDPTLRWGAGPALGRSFTHGPELEEGHLRIHQDGLYRLHIQVTLANCSSPGSTLQHRATLAVGICSPAAHGISLLRGRFGQDCTVALQRLTYLVHGDVLCTNLTLPLLPSRNADETFFGVQWICPGGSKQQQRLLEHPEPHTAELQLNLTVPRKDPTLRWGAGPALGRSFTHGPELEEGHLRIHQDGLYRLHIQVTLANCSSPGSTLQHRATLAVGICSPAAHGISLLRGRFGQDCTVALQRLTYLVHGDVLCTNLTLPLLPSRNADETFFGVQWICP
# Assays:
# Assay in all cases: ELISA
# CD40-huFc = CD40-huFc (UniProt P25942 21-193)
# Chain of CD40-huFc (P25942 21-193): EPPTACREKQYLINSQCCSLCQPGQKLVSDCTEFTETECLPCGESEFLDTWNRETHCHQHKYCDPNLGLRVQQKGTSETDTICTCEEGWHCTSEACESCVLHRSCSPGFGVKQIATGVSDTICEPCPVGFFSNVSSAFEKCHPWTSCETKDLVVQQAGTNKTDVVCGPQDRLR
# CD27-moFc = target: T1, CD27-moFc
# CD40-moFc = CD40-moFc (UniProt P25942 21-193)
# Chain of CD40-moFc (P25942 21-193): as above
# OX40-moFc = target: T2, OX40-moFc
# m4-1BB-Fc = target: T3, m4-1BB-Fc
# mOX40-Fc = target: T4, mOX40-Fc
# mCD27-Fc = target: T5, mCD27-Fc
# mCD40-Fc = target: T6, mCD40-Fc
binder,measurement,setting,value
B1,EC50,CD40-huFc,0.1 nM
same,EC50,CD27-moFc,0.3 nM
B2,EC50,CD40-huFc,0.5 nM
same,EC50,CD40-moFc,0.3 nM
same,EC50,OX40-moFc,0.2 nM
B3,EC50,m4-1BB-Fc,9.2 nM
same,EC50,mOX40-Fc,55.2 nM
B4,EC50,mCD27-Fc,0.4 nM
same,EC50,mCD40-Fc,1.4 nM
